These results are taken from US20220220224A1 (Hoffmann-La Roche, published 2022).

The target in assay [1] is T1, recombinant biotinylated monomeric Fc fusion of cynomolgus Folate Receptor 1 (cy FolR1 ECD-AcTev-Fcknob-Avi … (cynomolgus, UniProt P0DOX5 223-449 = IgG part, biotin on the C-terminal Avi tag)).
T1 construct: also called cyFolR1-Fc; cyno FolR1
The assay is described as follows: SPR Biacore, avidity (bivalent, apparent KD), antigen-Fc on SA chip. The procedure: (§1) The avidity of the interaction between the anti-FolR1 IgG or T cell bispecifics and the recombinant folate receptors was determined as described below (Table 25).
(§2) Recombinant biotinylated monomeric Fc fusions of human, cynomolgus and murine Folate Receptor 1 (FolR1-Fc) were directly coupled on a SA chip using the standard coupling instruction (Biacore, GE Healthcare). The immobilization level was about 300-400 RU. The anti-FolR1 IgGs or T cell bispecifics were passed at a concentration range from 3.7 to 900 nM with a flow of 30 μL/minutes through the flow cells over 180 seconds. The dissociation was monitored for 240 or 600 seconds. The chip surface was regenerated after every cycle using a double injection of 30 sec 10 mM Glycine-HCl pH 2. Bulk refractive index differences were corrected for by subtracting the response obtained on reference flow cell immobilized with recombinant biotinylated murine CD134 Fc fusion. The binding curves resulting from the bivalent binding of the IgG or T cell bispecifics were approximated to a 1:1 Langmuir binding (even though it is a 1:2 binding) and fitted with that model to get an apparent KD representing the avidity of the bivalent binding. The apparent avidity constants for the interactions were derived from the rate constants of the fitting using the Bia Evaluation software (GE Healthcare). For the 1+1 T cell bispecifics format the interaction is a real 1:1 and the KD represents affinity since there is only one FolR1 binder in this construct.

Assay [2] concerns the target T2, recombinant biotinylated monomeric Fc fusion of murine Folate Receptor 1 (mu FolR1 ECD-AcTev-Fcknob-Avitag … (murine, UniProt P0DOX5 223-449 = IgG part, biotin on the C-terminal Avi tag)).
T2 construct: also called muFolR1-Fc; murine FolR1
The description is as above. The procedure: as §1, §2

Assay [3] deals with T3, recombinant biotinylated monomeric Fc fusion of human Folate Receptor 1 (huFolR1 ECD-AcTev-Fcknob-Avi tag … (human, UniProt P0DOX5 223-449 = IgG part, biotin on the C-terminal Avi tag)).
T3 construct: also called huFolR1-Fc; human FolR1-Fc
The assay is described as above. The method, then:
as §1, §2

The target of assay [4] is T1, recombinant biotinylated monomeric Fc …. Nature of the assay: SPR Biacore, affinity (monovalent), antibody captured via anti-Fab. The method, then: (§3) The affinity of the interaction between the anti-FolR1 IgG or T cell bispecifics and the recombinant folate receptors was determined as described below (Table 26).
(§4) For affinity measurement, direct coupling of around 12000 resonance units (RU) of the anti-human Fab specific antibody (Fab capture kit, GE Healthcare) was performed on a CM5 chip at pH 5.0 using the standard amine coupling kit (GE Healthcare). Anti-FolR1 IgG or T cell bispecifics were captured at 20 nM with a flow rate of 10 μl/min for 40 sec, the reference flow cell was left without capture. […] The dissociation phase was monitored for 300 s and triggered by switching from the sample solution to HBS-EP. The chip surface was regenerated after every cycle using a double injection of 60 sec 10 mM Glycine-HCl pH 1.5. Bulk refractive index differences were corrected for by subtracting the response obtained on the reference flow cell 1. The affinity constants for the interactions were derived from the rate constants by fitting to a 1:1 Langmuir binding using the Bia Evaluation software (GE Healthcare).
Background: In SPR one partner is held on a chip, and binding of the other changes the refractive index at the surface.

Assay [5] deals with T2, recombinant biotinylated monomeric Fc …. The assay is described as above. The method, then: as §3, §4
Assay [6] has as its target T3, recombinant biotinylated monomeric Fc …. The assay is described as above. The method, then:
as §3, §4

Assay [7] deals with T4, human FolR2 on transfected HEK cells (human, UniProt P14207 17-230).
T4 construct: whole, on cells
Nature of the assay: flow cytometry on transfected HEK cells. (In general: In flow cytometry, cells or beads pass a laser one at a time.)

Assay [8] addresses T5, recombinant biotinylated monomeric Fc fusion of human Folate Receptor 3 (hu FolR3 ECD-AcTev-Fcknob-Avi tag … (human, UniProt P0DOX5 223-449 = IgG part, biotin on the C-terminal Avi tag)).
T5 construct: also called FolR3-Fc
The assay is described as follows: SPR Biacore, single injection on immobilized antigen-Fc. The gist of the method:
(§5)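 Biacore T200 at 25 °C in HBS-EP (HEPES pH 7.4). Biotinylated FolR-Fc fusions captured on SA chip at about 300-400 RU. IgGs injected once at 500 nM for 60 s to assess cross-reactivity and specificity.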

Assay [9] addresses T6, recombinant biotinylated monomeric Fc fusion of human Folate Receptor 2 (hu FolR2 ECD-AcTev-Fcknob-Avi tag … (human, UniProt P0DOX5 223-449 = IgG part, biotin on the C-terminal Avi tag)).
T6 construct: also called FolR2-Fc
The description is as above. The essentials:
as §5

T4 sequence (P14207 17-230): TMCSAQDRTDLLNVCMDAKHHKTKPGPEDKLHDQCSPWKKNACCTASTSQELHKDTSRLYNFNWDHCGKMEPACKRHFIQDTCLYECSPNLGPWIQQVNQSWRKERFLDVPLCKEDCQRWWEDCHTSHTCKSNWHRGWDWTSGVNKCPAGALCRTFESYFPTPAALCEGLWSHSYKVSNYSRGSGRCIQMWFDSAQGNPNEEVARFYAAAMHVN

B1: 36F2 IgG (antibody, V domains shown)
VH: QVQLVQSGAEVKKPGASVKVSCKASGYTFTSYYMHWVRQAPGQGLEWMGIINPSGGSTSYAQKFQGRVTMTHDTSTSTVYMELSSLRSEDTAVYYCARSFFTGFHLDYWGQGTLVTVSS
VL: EIVLTQSPGTLSLSPGERATLSCRASQSVSSSYLAWYQQKPGQAPRLLIYGASSRATGIPDRFSGSGSGTDFTLTISRLEPEDFAVYYCQQYTNEHYYTFGQGTKVEIK
Take B1: the Kd in assay [1] turned out to be 6 nM; in assay [2] it was 2 nM; in assay [3] it was 6 nM; in assay [4], 570 nM; in assay [5] it was 210 nM; in assay [6], 730 nM. For the same molecule, the koff in assay [1] worked out at 0.0175 s⁻¹; in assay [2], 0.000823 s⁻¹; in [3], 0.013 s⁻¹; in assay [4], 0.0578 s⁻¹; in [5], 0.0178 s⁻¹; in assay [6], 0.0665 s⁻¹. Further, the kon in assay [1] was found to be 2.78e+06 M⁻¹ s⁻¹; in assay [2], 428000 M⁻¹ s⁻¹; in [3], 2.07e+06 M⁻¹ s⁻¹; in assay [4], 102000 M⁻¹ s⁻¹; in assay [5] it was 83200 M⁻¹ s⁻¹; in [6], 91000 M⁻¹ s⁻¹. Further, the results for the binding result in assay [7], in assay [8] and in assay [9] were “no binding”, “no binding (tested: 500 nM)” and “no binding (tested: 500 nM)”, respectively.

In general, koff refers to the first-order rate constant of dissociation. The kon is the second-order rate constant of association.
